Assay results taken from US5910570A, “Cloned DNA encoding a UDP-GalNAc: polypeptide N-acetylgalactosaminy-ltransferase” (Pharmacia & Upjohn Company, priority 1997, dated 1999).
Where “and” joins values, the source holds several entries; their conditions need not be identical. Equal values may be shown once.

Tests used:
Assay type in all cases: biochemical, bovine
[1] = substrate: CC(C)C[C@H](NC(=O)[C@@H]1CCCN1C(=O)[C@H](C)NC(=O)[C@H](C)NC(=O)[C@H](CO)NC(=O)[C@H](C)NC(=O)[C@H](C)NC(=O)[C@H](CC(=O)O)NC(=O)[C@@H]1CCCN1C(=O)[C@@H]1CCCN1)C(=O)N[C@@H](CCCNC(=N)N)C(=O)O; experiment: Kinetic parameters with the cloned soluble GalNAc-transferase (Bond Elut assay); settings: other: GalNAcTs; double reciprocal plots
[2] = substrate: C[C@H](NC(=O)[C@@H]1CCCN1C(=O)[C@@H]1CCCN1)C(=O)N[C@@H](CO)C(=O)N[C@H](C(=O)N[C@@H](CO)C(=O)N[C@@H](C)C(=O)N1CCC[C@H]1C(=O)NCC(=O)O)[C@@H](C)O; experiment: as above; settings: other: GalNAcTs; double reciprocal plots
[3] = substrate: C[C@@H](O)[C@H](NC(=O)[C@@H](N)CCCNC(=N)N)C(=O)N1CCC[C@H]1C(=O)N1CCC[C@H]1C(=O)N1CCC[C@H]1C(=O)O; experiment: Determination of kinetic parameters for acceptor peptides (Dowex-2 assay); settings: other: acceptor peptide; 150 μM UDP-GalNAc, 20 minutes; means ± S.E. (n = 3); pH 7.2
Description: (§1) The transfer of N-acetylgalactosamine to peptide acceptors is assayed by two different assays. The concentration of UDP-GalNAc is saturating in all assays; a Km of 8 μM is reported for bovine colostrum GalNAc-transferase (Elhammer and Kornfeld, 1986). For the determination of kinetic parameters the reaction mixture contains 50 mM Imidazole, pH 7.2, 10 mM MnCl2, 0.5% Triton X-100, 150 μM UDP-GalNAc, approximately 120,000 cpm of UDP-[1-^3 H]-GalNAc, varying concentrations of acceptor (see individual experiments) and approximately 5 mU of enzyme in a final volume of 40 μl; standard incubation time is 20 minutes. The reaction is terminated by placing the samples in a boiling water bath for 1.5 minutes. The reaction product (glycosylated peptide) is separated from unreacted UDP-GalNAc by chromatography on Dowex-2 columns (0.5 ml bed volume) equilibrated in water; the run-through fraction (2.5 ml) containing the glycosylated peptide is collected, supplemented with scintillation fluid and counted for radioactivity. For the determination of the low levels of transfer to serine, the assay conditions are as follows: 50 mM Imidazole, pH 7.2, 10 mM MnCl2, 0.5% Triton X-100, 150 μM UDP-GalNAc, approximately 260,000 cpm UDP-[^3 H]-GalNAc and 3.2 mM acceptor peptide (the concentration of RSPPP is 3.7 mM). The assays are incubated for 20 minutes ([…]) [SEQ ID NO:14] or 8 hours ([…] [SEQ ID NO:15], PPAdSSdSAPG and RSPPP [SEQ ID NO:13]). Following incubation, the enzyme is inactivated by placing the samples on a boiling water bath for 1.5 minutes. The samples are then allowed to cool and the reaction products are separated from unreacted UDP-GalNAc and free GalNAc by chromatography on a Biogel P-2 column (1×50 cm) equilibrated in 7% isopropanol; thirty 1.3 ml fractions are collected.
(§2) Assays were carried out as described in Materials and Methods.
(§3) Assay time was 20 minutes.
(§4) The values are given as means ± S.E. (n = 3)

[4] = substrate: C[C@H](NC(=O)[C@@H]1CCCN1C(=O)[C@@H]1CCCN1)C(=O)N[C@@H](CO)C(=O)N[C@@H](CO)C(=O)N[C@@H](CO)C(=O)N[C@@H](C)C(=O)N1CCC[C@H]1C(=O)NCC(=O)O; experiment: as above; settings: other: calculated assuming that S0 << Km; pH 7.2
Description: as §1, §2, §3, §4

[5] = substrate: C[C@H](NC(=O)[C@@H]1CCCN1C(=O)[C@@H]1CCCN1)C(=O)N[C@@H](CO)C(=O)N[C@H](C(=O)N[C@@H](CO)C(=O)N[C@@H](C)C(=O)N1CCC[C@H]1C(=O)NCC(=O)O)[C@@H](C)O; experiment: as above; settings: other: acceptor peptide; 150 μM UDP-GalNAc, 20 minutes; means ± S.E. (n = 3); pH 7.2
Description: as §1, §2, §3, §4

[6] = substrate: C[C@H](NC(=O)[C@@H]1CCCN1C(=O)[C@@H]1CCCN1)C(=O)N[C@H](CO)C(=O)N[C@H](C(=O)N[C@H](CO)C(=O)N[C@@H](C)C(=O)N1CCC[C@H]1C(=O)NCC(=O)O)[C@@H](C)O; experiment: as above; settings: other: calculated assuming that S0 << Km; pH 7.2
Description: as §1, §2, §3, §4

[7] = substrate: N=C(N)NCCC[C@H](N)C(=O)N[C@@H](CO)C(=O)N1CCC[C@H]1C(=O)N1CCC[C@H]1C(=O)N1CCC[C@H]1C(=O)O; experiment: as above; settings: other: calculated assuming that S0 << Km; pH 7.2
Description: as §1, §2, §3, §4

Row | Protein | Km [1] | Km [2] [mM] | Km [3] [mM] | kcat [3] [s⁻¹] | kcat/Km [3] [M⁻¹ s⁻¹] | kcat/Km [4] [M⁻¹ s⁻¹] | Km [5] [mM] | kcat [5] [s⁻¹] | kcat/Km [5] [M⁻¹ s⁻¹] | kcat/Km [6] [M⁻¹ s⁻¹] | kcat/Km [7] [M⁻¹ s⁻¹]
1 | cloned soluble GalNAc-transferase (GalNAcTs) (Bos taurus) (protein, The plasmid pAC373-GalNAcT (Homa et al., 1993) which contains the full length GalNAc-transferase gene; honeybee melittin signal peptide (21 aa) (N, cleaved yes); made in house; host or cells: Sf9 cells / baculovirus, purified from serum-free culture medium on apomucin-Sepharose) LEPVQKPHEGPGEMGKPVVIPKEDQEKMKEMFKINQFNLMASEMIALNRSLPDVRLEGCKTKVYPDNLPTTSVVIVFHNEAWSTLLRTVHSVINRSPRHMLEEIVLVDDASERDFLKRPLESYVKKLKVPVHVIRMEQRSGLIRARLKGAAVSKGQVITFLDAHCECTVGWLEPLLARIKHDRKTVVCPIIDVISDDTFEYMAGSDMTYGGFNWKLNFRWYPVPQREMDRRKGDRTLPVRTPTMAGGLFSIDRDYFQEIGTYDAGMDIWGGENLEISFRIWQCGGTLEIVTCSHVGHVFRKATPYTFPGGTGQIINKNNRRLAEVWMDEFKNFFYIISPGVTKVDYGDISSRLGLRHKLQCRPFSWYLENIYPDSQIPRHYFSLGEIRNVETNQCLDNMARKENEKVGIFNCHGMGGNQVFSYTANKEIRTDDLCLDVSKLNGPVTMLKCHHLKGNQLWEYDPVKLTLQHVNSNQCLDKATDEDSQVPSIRDCSGSRSQQWLLRNVTLPEIF | 3.6 mM and 3.5 mM | 6.5 | – | – | – | – | – | – | – | – | –
2 | bovine colostrum GalNAc-transferase (Bos taurus) (protein, from tissue; host or cells: bovine colostrum) GLPAGDVLEPVQKPHEGPGEMGKPVVIPKEDQEKMKEMFKINQFNLMASEMIALNRSLPDVRLEGCKTKVYPDNLPTTSVVIVFHNEAWSTLLRTVHSVINRSPRHMLEEIVLVDDASERDFLKRPLESYVKKLKVPVHVIRMEQRSGLIRARLKGAAVSKGQVITFLDAHCECTVGWLEPLLARIKHDRKTVVCPIIDVISDDTFEYMAGSDMTYGGFNWKLNFRWYPVPQREMDRRKGDRTLPVRTPTMAGGLFSIDRDYFQEIGTYDAGMDIWGGENLEISFRIWQCGGTLEIVTCSHVGHVFRKATPYTFPGGTGQIINKNNRRLAEVWMDEFKNFFYIISPGVTKVDYGDISSRLGLRHKLQCRPFSWYLENIYPDSQIPRHYFSLGEIRNVETNQCLDNMARKENEKVGIFNCHGMGGNQVFSYTANKEIRTDDLCLDVSKLNGPVTMLKCHHLKGNQLWEYDPVKLTLQHVNSNQCLDKATDEDSQVPSIRDCSGSRSQQWLLRNVTLPEIF | – | – | 3.3 | 0.604 ± 0.083 | 183 | 8.5 | 6 | 1.81 ± 0.357 | 301 | 1.2 | 0.4
